One assay has as its target T1, human VEGFB (human, UniProt P49765-2 22-188, limits assumed).
T1 sequence (looked up): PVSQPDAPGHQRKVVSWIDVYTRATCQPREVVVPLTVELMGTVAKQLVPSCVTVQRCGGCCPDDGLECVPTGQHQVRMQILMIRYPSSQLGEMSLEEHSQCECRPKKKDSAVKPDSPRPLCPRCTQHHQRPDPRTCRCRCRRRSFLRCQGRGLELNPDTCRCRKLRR
Put plainly: biolayer interferometry.

The next assay addresses T2, mouse VEGFA164 (mouse, UniProt Q00731-2 27-190).
T2 sequence (looked up): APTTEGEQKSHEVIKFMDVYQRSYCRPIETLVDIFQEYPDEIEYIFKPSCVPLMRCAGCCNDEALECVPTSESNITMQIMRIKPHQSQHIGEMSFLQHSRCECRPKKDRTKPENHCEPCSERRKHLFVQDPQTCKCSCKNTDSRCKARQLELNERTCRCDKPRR
Kind of assay: biolayer interferometry. A general note: BLI is a label-free optical method that tracks binding on a fibre tip over time.

The target in a further assay is T3, human PlGF (human, UniProt P49763-2 19-149, limits assumed).
T3 sequence (looked up): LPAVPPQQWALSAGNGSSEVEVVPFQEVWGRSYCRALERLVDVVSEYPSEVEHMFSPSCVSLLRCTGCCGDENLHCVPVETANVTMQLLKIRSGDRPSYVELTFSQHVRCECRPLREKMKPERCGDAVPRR
Put plainly: biolayer interferometry.

Assay [1] addresses T4, human VEGFA 121 (human, UniProt P15692-9 27-147, biotinylated (BLI assays)).
T4 construct: also called biotinylated VEGF
T4 sequence (looked up): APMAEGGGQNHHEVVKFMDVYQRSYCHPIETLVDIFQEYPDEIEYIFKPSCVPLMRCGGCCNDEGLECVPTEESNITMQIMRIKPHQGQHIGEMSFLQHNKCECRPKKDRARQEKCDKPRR
Put plainly: bio-layer interferometry on immobilised VEGF (biotinylated VEGFA 121 by paragraph 199).

Assay [2] concerns the target T4, human VEGFA 121. Kind of assay: biolayer interferometry, generally the same method as for Ig5 and Ig12; immobilized biotinylated VEGF.
Assay [3] has as its target T5, hen egg-white lysozyme (HEL) (hen, UniProt P00698 19-147).
T5 construct: Bought protein; It was biotinylated for phage selection; In BLI it was captured through biotinylated HyHEL-10 or HyHEL-5 Fab; also called hen egg white lysozyme antigen
Kind of assay: biolayer interferometry (BLItz); HEL captured by biotinylated HyHEL-10 Fab on streptavidin sensors; Ig5 at 2000, 1000, 500 nM.

The target of assay [4] is T5, hen egg-white lysozyme (HEL). Put plainly: biolayer interferometry (Example 5); printed as 'Affinity (nM)' in Table 4.
The target is the same in assay [5]. Kind of assay: printed as 'Affinity (nM)' in Table 4; method not given; differs from the 30 nM of Example 5.
For assay [6] the target is unchanged. Put plainly: biolayer interferometry (BLItz); HEL captured by biotinylated HyHEL-5 Fab on streptavidin sensors; Ig12 at 1000, 750, 375 nM.

Positions count from the first letter of the chain named. Where only a bound is given, the exact number is not on record here.

As a reminder, the Kd is the constant that tells how readily two partners part at equilibrium. Low values mean a tighter complex, high ones a looser complex. As usually defined, the koff is the rate constant with which the complex falls apart. High values mean fast dissociation, low ones slow dissociation. Broadly, the kon is the rate constant with which the complex forms.

T5 sequence (P00698 19-147): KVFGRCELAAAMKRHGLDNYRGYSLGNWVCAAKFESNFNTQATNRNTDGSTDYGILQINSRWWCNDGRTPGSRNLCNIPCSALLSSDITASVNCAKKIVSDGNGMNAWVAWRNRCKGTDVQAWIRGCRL

B1: VLD9 fused to mouse IgG2c hinge-Fc region (VLD9-Fc, long native hinge) (Fc fusion)
chain: DIQMTQSPSSLSASVGDRVTITCRASRAIAAYLNWYQQKPGKAPKLLIYAYSDLQSGVPSRFSGSGSGTDFTLTISSLQPEDFATYYCQQVWANPYTFGQGTKVEIKRA
notes: domain: hinge and Fc region; Expressed in Expi293 cells; also called VLD9-Fc native hinge; VLD9-Fc fusion protein; not shown: Mouse IgG2c hinge and Fc region
On to B1, for which the binding result in the assay with human VEGFB and in the assay with human PlGF was “no binding” in each case. For the same molecule, the values for the Kd in the assay with mouse VEGFA164 and with human VEGFA 121 [1] were < 10 nM and ~3 nM, respectively.

B2: VLD9 homodimer (other)
VL: B1 chain
notes: Homodimer of two identical human light chain variable domains selected on VEGF; Expressed generally as Ig5 and Ig12 were; also called VLD9 dimer; immunoglobulin VLD9
In the case of B2, the Kd with human VEGFA 121 [2] is < 10 nM.

B3: immunoglobulin homodimer Ig5 (other)
VL: DIQMTQSPSSLSASVGDRVTITCRASQDIAAALNWYQQKPGKAPKLLIYASSYLQSGVPSRFSGSGSGTDFTLTISSLQPEDFATYYCQQDGYYPATFGQGTKVEIKR
notes: also called VL5; Ig52
In [3], B3 had a koff of 0.0057 s⁻¹ and a kon of 43000 M⁻¹ s⁻¹. Also, the Kd in assay [4] is 130 nM.

B4: immunoglobulin homodimer Ig12 (other)
VL: B3 VL with A31S, A32D, A50S, S51D, D91Y, G92Y, Y93M, Y94I, A96S
notes: Homodimer of two identical human Vkappa1 light chain variable domains, expressed in E. coli and purified on Protein L. Structure with HEL is PDB 4N1C; also called VL12; Ig122
In assay [5], B4 gave a Kd of 64 nM. For the same molecule, in assay [6], the Kd stood at 30 nM, the koff turned out to be 0.0025 s⁻¹ and the kon came to 84000 M⁻¹ s⁻¹.
